Measurements reported in patent US20050058634A1.

Experiments:
[1] = target: Soluble cation-independent mannose 6-phosphate receptor (CI-MPR) purified from fetal bovine serum, coupled to Affigel-15 beads (CI-MPR column) (bovine (fetal bovine serum)) (UniProt P08169); experiment: CI-MPR column fractionation; enzyme activity of fraction (starting material 1.41)
[2] = target: Soluble cation-independent mannose 6-phosphate receptor (CI-MPR) purified from fetal bovine serum, coupled to Affigel-15 beads (CI-MPR column) (bovine (fetal bovine serum)) (UniProt P08169); experiment: CI-MPR column fractionation, beta-glucuronidase activity (FIG. 6)
[3] = target: Soluble cation-independent mannose 6-phosphate receptor (CI-MPR) purified from fetal bovine serum, coupled to Affigel-15 beads (CI-MPR column) (bovine (fetal bovine serum)) (UniProt P08169); experiment: CI-MPR column fractionation; enzyme activity of fraction eluted with 5 mM M6P (starting material 1.41)

Chain of UniProt P08169 (P08169 45-2313 limits assumed): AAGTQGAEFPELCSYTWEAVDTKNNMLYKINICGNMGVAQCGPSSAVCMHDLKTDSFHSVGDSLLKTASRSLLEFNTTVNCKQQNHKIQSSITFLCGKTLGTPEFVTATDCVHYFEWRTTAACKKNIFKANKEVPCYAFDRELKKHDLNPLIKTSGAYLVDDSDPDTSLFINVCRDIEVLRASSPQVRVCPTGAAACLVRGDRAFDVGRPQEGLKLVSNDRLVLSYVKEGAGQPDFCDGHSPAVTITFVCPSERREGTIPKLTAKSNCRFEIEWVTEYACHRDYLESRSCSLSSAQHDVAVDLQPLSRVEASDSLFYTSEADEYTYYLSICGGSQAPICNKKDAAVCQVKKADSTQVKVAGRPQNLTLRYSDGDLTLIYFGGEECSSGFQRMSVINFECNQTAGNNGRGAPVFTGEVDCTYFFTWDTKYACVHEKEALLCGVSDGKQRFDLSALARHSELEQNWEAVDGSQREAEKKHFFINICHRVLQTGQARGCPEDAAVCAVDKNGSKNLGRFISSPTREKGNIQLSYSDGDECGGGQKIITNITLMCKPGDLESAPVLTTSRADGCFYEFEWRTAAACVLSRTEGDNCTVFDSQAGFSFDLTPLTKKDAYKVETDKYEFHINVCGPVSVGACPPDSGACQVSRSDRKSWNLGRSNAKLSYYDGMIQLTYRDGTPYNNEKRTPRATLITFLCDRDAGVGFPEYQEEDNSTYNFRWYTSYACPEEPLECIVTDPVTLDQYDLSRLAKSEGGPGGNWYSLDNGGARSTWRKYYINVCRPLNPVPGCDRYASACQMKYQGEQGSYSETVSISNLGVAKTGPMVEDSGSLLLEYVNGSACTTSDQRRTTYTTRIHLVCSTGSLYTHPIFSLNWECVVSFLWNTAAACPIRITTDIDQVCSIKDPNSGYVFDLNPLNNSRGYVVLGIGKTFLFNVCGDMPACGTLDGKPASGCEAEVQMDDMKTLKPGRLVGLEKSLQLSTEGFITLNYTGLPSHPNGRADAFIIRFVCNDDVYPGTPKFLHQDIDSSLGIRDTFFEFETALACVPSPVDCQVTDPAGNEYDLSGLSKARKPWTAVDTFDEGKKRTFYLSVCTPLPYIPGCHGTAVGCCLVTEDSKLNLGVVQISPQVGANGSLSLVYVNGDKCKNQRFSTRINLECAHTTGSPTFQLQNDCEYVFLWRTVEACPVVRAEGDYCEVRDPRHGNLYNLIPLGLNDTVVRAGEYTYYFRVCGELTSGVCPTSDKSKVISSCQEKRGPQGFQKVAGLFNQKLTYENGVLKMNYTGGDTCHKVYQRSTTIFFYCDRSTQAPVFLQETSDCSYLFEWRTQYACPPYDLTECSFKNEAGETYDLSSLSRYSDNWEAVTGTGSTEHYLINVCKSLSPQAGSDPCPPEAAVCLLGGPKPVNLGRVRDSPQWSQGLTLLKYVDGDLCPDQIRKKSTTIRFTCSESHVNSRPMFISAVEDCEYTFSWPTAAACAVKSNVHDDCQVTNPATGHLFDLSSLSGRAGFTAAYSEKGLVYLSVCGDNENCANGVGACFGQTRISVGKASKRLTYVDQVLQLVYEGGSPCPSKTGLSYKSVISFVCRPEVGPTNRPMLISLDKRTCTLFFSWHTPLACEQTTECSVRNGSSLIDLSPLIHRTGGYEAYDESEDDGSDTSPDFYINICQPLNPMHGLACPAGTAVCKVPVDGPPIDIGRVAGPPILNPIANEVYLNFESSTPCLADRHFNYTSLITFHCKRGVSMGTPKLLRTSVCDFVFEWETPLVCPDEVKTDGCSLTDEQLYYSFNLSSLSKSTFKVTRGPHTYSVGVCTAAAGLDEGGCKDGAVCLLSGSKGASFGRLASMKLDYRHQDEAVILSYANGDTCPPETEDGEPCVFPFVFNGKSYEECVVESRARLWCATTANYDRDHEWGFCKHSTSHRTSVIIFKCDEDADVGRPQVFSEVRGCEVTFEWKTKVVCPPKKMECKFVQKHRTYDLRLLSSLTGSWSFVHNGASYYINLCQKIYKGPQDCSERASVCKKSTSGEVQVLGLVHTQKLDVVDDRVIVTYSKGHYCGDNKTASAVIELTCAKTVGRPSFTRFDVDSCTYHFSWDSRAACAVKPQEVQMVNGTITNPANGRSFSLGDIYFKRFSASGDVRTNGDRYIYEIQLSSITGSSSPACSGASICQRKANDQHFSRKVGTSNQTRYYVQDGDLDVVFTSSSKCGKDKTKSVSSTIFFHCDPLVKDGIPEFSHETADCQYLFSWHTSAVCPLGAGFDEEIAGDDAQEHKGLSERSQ

O.D. at 400 nm (beta-glucuronidase activity in column flow-through, unbound) [1]: 0.27 OD 400 nm | O.D. at 400 nm (beta-glucuronidase activity in final wash) [1]: 0 OD 400 nm | percent of starting activity in the M6P elution fraction [2]: 5% | percent of starting activity in the flow through [2]: 19% | O.D. at 400 nm (beta-glucuronidase activity in M6P elution, bound) [3]: 0.06 OD 400 nm
Substance: oxidized beta-glucuronidase conjugated with phosphopentamannose-hydrazine (enzyme)
